Assay results published in article PMC7906288.
Where two headings read alike, the source gives them in different places.

How the values were obtained:
Experiment in all cases: native MS
[1] = biological target: NISTmAb, recombinant humanized monoclonal IgG1 antibody (not stated | human (humanized antibody))
[2] = biological target: SILu Lite SigmaMAb universal antibody standard human (MSQC4) (human)
[3] = biological target: SILu Lite SigmaMAb universal antibody standard human (MSQC4) (human); remark: listed apart in the source
[4] = biological target: SILu Lite SigmaMAb universal antibody standard human (MSQC4) (human); remark: listed apart in the source

Substance | stoichiometry N [1] | stoichiometry N [2] | stoichiometry N [3] | stoichiometry N [4]
NISTmAb, recombinant humanized monoclonal IgG1 antibody | 2 | – | – | –
SILu Lite SigmaMAb universal antibody standard human (MSQC4) | – | 2 | 2 | 2
